What was measured:
[1] = target: T1, cation-independent mannose-6-phosphate receptor (CI-M6PR), as used in the in vitro receptor binding assay …; test: in vitro CI-M6PR binding assay
[2] = target: T1, cation-independent mannose-6-phosphate …; test: ELISA, CI-M6PR binding, detection with antibody to human Naglu
[3] = target: cation-independent mannose-6-phosphate receptor (CI-M6PR) on cells overexpressing CI-M6PR; test: cellular uptake assay on cells overexpressing CI-M6PR, intracellular Naglu activity read-out

B1: recombinant human Naglu (rhNaglu) produced in HT-1080 cells overexpressing GNPT (enzyme)
chain: DEAREAAAVRALVARLLGPGPAADFSVSVERALAAKPGLDTYSLGGGGAARVRVRGSTGVAAAAGLHRYLRDFCGCHVAWSGSQLRLPRPLPAVPGELTEATPNRYRYYQNVCTQSYSFVWWDWARWEREIDWMALNGINLALAWSGQEAIWQRVYLALGLTQAEINEFFTGPAFLAWGRMGNLHTWDGPLPPSWHIKQLYLQHRVLDQMRSFGMTPVLPAFAGHVPEAVTRVFPQVNVTKMGSWGHFNCSYSCSFLLAPEDPIFPIIGSLFLRELIKEFGTDHIYGADTFNEMQPPSSEPSYLAAATTAVYEAMTAVDTEAVWLLQGWLFQHQPQFWGPAQIRAVLGAVPRGRLLVLDLFAESQPVYTRTASFQGQPFIWCMLHNFGGNHGLFGALEAVNGGPEAARLFPNSTMVGTGMAPEGISQNEVVYSLMAELGWRKDPVPDLAAWVTSFAARRYGVSHPDAGAAWRLLLRSVYNCSGEACRGHNRSPLVRRPSLQMNTSIWYNRSDVFEAWRLLLTSAPSLATSPAFRYDLLDLTRQAVQELVSLYYEEARSAYLSKELASLLRAGGVLAYELLPALDEVLASDSRFLLGSWLEQARAAAVSEAEADFYEQNSRYQLTLWGPEGNILDYANKQLAGLVANYYTPRWRLFLEALVDSVAQGIPFQQHQFDKNVFQLEQAFVLSKQRYPSQPRGDTVDLAKKIFLKYYPRWVAGSW
modifications: M6P on N-linked glycans enhanced by co-expression with GNPT
notes: Same polypeptide as rhNaglu; It differs in being co-expressed with GNPT; also called GNPT/rhNaglu; rhNaglu produced using a GNPT overexpressing cell line
Binder B1 has a Kd [1] of about 65 nM.

B2: Naglu-IGFII fusion protein (produced in HT-1080 cells) (enzyme)
chain: DEAREAAAVRALVARLLGPGPAADFSVSVERALAAKPGLDTYSLGGGGAARVRVRGSTGVAAAAGLHRYLRDFCGCHVAWSGSQLRLPRPLPAVPGELTEATPNRYRYYQNVCTQSYSFVWWDWARWEREIDWMALNGINLALAWSGQEAIWQRVYLALGLTQAEINEFFTGPAFLAWGRMGNLHTWDGPLPPSWHIKQLYLQHRVLDQMRSFGMTPVLPAFAGHVPEAVTRVFPQVNVTKMGSWGHFNCSYSCSFLLAPEDPIFPIIGSLFLRELIKEFGTDHIYGADTFNEMQPPSSEPSYLAAATTAVYEAMTAVDTEAVWLLQGWLFQHQPQFWGPAQIRAVLGAVPRGRLLVLDLFAESQPVYTRTASFQGQPFIWCMLHNFGGNHGLFGALEAVNGGPEAARLFPNSTMVGTGMAPEGISQNEVVYSLMAELGWRKDPVPDLAAWVTSFAARRYGVSHPDAGAAWRLLLRSVYNCSGEACRGHNRSPLVRRPSLQMNTSIWYNRSDVFEAWRLLLTSAPSLATSPAFRYDLLDLTRQAVQELVSLYYEEARSAYLSKELASLLRAGGVLAYELLPALDEVLASDSRFLLGSWLEQARAAAVSEAEADFYEQNSRYQLTLWGPEGNILDYANKQLAGLVANYYTPRWRLFLEALVDSVAQGIPFQQHQFDKNVFQLEQAFVLSKQRYPSQPRGDTVDLAKKIFLKYYPRWVAGSWGAPGGGGGAAAAAGGGGGGAPGGGGGAAAAAGGGGGGAPGGGGGAAAAAGGGGGGAPLCGGELVDTLQFVCGDRGFYFSRPASRVSRRSRGIVEECCFRSCDLALLETYCATPAKSE
notes: Purified from conditioned medium
For B2, the Kd [1] was 0.24 nM, the Kd [2] was about 0.21 nM and the “fold higher affinity than Naglu-SapDC produced in GNPT overexpressing cells” value [3] was 3.6 fold.

B3: Naglu-LIF fusion protein (produced in HT-1080 cells) (enzyme)
chain: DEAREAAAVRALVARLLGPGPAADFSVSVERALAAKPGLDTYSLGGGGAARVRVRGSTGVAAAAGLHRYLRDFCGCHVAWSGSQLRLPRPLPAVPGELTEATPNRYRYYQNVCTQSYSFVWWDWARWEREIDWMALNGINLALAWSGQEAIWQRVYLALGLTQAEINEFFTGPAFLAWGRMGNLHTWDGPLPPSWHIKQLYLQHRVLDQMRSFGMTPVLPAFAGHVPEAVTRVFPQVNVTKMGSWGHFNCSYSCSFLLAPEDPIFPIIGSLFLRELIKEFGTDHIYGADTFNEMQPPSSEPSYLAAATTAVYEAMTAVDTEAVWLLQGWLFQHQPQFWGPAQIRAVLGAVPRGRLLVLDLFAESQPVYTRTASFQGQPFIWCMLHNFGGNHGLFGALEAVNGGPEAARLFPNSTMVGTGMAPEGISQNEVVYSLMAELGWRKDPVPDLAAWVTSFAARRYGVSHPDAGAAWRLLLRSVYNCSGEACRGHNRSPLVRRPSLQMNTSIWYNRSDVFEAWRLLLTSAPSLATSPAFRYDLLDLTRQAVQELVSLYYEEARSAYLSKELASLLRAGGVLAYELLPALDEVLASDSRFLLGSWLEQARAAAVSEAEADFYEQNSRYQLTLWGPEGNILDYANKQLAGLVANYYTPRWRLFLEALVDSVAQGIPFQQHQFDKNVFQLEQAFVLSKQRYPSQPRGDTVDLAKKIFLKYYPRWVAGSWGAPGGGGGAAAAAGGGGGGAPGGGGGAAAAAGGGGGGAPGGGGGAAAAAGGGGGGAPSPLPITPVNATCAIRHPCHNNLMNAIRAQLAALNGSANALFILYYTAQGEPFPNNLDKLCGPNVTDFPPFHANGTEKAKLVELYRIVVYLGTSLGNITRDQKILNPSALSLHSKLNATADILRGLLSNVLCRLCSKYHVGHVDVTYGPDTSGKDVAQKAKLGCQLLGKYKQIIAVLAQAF
modifications: N-linked glycosylation sites in the LIF part marked (N); by anti-M6P Western blot not M6P-phosphorylated in any detectable manner when overexpressed alone
Work on B3 yielded a Kd [2] of 32.4 nM.

Reference: patent US20170232076A1 (SHIRE HUMAN GENETIC THERAPIES, published 2017)
